Reference: article PMC3430215

Target: Dunaliella salina Hsp90 (DsHsp90) (Dunaliella salina)
Assay: SEC; Superdex G200 10/30 column on an AKTA system; 40 mM HEPES, 25 mM KCl, pH 7.5; apparent molecular weight from a standard curve of markers; single peak

stoichiometry N: 2
Substance: Dunaliella salina Hsp90 (DsHsp90) (natural protein)
